Source: patent US20100167390, “Novel Oligonucleotide and NF-kB Decoy Comprising the Same” (published 2010)

Biological target: NF-kB p65 (RelA) (UniProt Q04206 Q04206:1-551)
Assay: competition; primary screen 2.10
Conditions: protein: extract; tags: TPA and CI-stimulated Jurkat nuclear extract, Active Motif TransAM kit
Protocol: The measurement was performed in accordance with the instructions attached to the kit. The kit was made for quantifying the NF-κB bound to the solid phase by ELISA after adding an NF-κB solution to the wells in which the NF-κB (p65 protein) consensus binding sequence was immobilized and after washing the resultant. By this measurement method, the higher the binding capacity of the oligonucleotide to the NF-κB, the smaller amount of the NF-κB quantified by the ELISA.
More concretely, the above-described measurement was carried out as follows concretely: Each SODN solution was serially diluted with Complete Binding Buffer contained in the kit to prepare test samples (common ratio: 3-fold, 4 times, n=3). […] After allowing coloration for 10 minutes, the Stop Solution was added to stop the reaction, and the absorbances at 450 nm and 630 nm were measured.
The absorbance at 630 nm was subtracted from the absorbance at 450 nm and the mean value of the blanks was further subtracted from the resultant, and the percentage of the mean value of each concentration based on the mean value of the controls was calculated. The concentration at which the calculated value was 50% (i.e., at which the binding was inhibited by 50%) was calculated from the regression lines between two points interposing 50% (an analysis software Graph Pad PRISM 4, GraphPad SOFTWARE was used). […]

Sequence of NF-kB p65 (RelA) (Q04206 whole entry, one chain of several): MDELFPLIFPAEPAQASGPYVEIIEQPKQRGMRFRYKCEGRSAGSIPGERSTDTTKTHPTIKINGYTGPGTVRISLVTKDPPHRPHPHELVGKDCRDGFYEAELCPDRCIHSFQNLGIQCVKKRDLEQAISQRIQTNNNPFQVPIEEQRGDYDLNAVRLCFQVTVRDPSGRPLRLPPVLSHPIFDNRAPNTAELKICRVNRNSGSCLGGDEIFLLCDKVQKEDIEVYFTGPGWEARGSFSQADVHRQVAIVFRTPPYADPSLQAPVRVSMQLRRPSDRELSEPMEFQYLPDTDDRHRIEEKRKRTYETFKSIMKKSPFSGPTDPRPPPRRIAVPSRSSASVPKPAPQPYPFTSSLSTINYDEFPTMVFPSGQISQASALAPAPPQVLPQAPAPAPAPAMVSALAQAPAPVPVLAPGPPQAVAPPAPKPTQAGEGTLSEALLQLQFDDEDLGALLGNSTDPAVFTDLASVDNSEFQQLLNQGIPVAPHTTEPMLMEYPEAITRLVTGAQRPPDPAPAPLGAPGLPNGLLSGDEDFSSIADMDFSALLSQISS

B1: SODN36 (dsDNA)
DNA 1: CTCGGGATTTCCCAGCTCG
DNA 2: CGAGCTGGGAAATCCCGAG
modifications: PS all bonds, both strands
- IC50: 2.61 nM
